We go through one protein from patent US8729232.

Data set [1] deals with S. coelicolor sulfatase motif peptide … with Thr3 substituted by alanine.
The target in data set [2] is S. coelicolor sulfatase motif peptide … with Leu9 substituted by alanine.
Data set [3] has as its target S. coelicolor sulfatase motif peptide … with Pro4 substituted by alanine.
Data set [4] deals with S. coelicolor sulfatase motif peptide … with Arg6 substituted by alanine.

B1: Streptomyces coelicolor formylglycine generating enzyme (Strep FGE, SCO7548), recombinant (protein)
chain: AVAAPSPAAAAEPGPAARPRSTRGQVRLPGGEFAMGDAFGEGYPADGETPVHTVRLRPFHIDETAVTNARFAAFVKATGHVTDAERFGSSAVFHLVVAAPDADVLGSAAGAPWWINVRGAHWRRPEGARSDITGRPNHPVVHVSWNDATAYARWAGKRLPTEAEWEYAARGGLAGRRYAWGDELTPGGRWRCNIWQGRFPHVNTAEDGHLSTAPVKSYRPNGHGLWNTAGNVWEWCSDWFSPTYYAESPTVDPHGPGTGAARVLRGGSYLCHDSYCNRYRVAARSSNTPDSSSGNLGFRCANDADLTSGSAAE
Take B1: the “conversion of cysteine to FGly relative to the wild-type sequence” value in data set [1] was “substitution of Thr3, Pro4, Arg6, or Leu9 with alanine completely abrogated activity”; in data set [2], “substitution of Thr3, Pro4, Arg6, or Leu9 with alanine completely abrogated activity”; in data set [3], “substitution of Thr3, Pro4, Arg6, or Leu9 with alanine completely abrogated activity”; in data set [4], “substitution of Thr3, Pro4, Arg6, or Leu9 with alanine completely abrogated activity”.
